Test results reported in patent US20250082772A1.
pEC50: −log10 of the molar value. Each block holds one substance with its values, some of them ahead of it.

Columns and labels:
[1] = target: CD71 on primary hepatocytes; test: cell-based or functional assay
[2] = target: recombinant mouse CD71 (Sino Biological Inc., Beijing, China) (mouse) (UniProt Q62351); test: plate binding to coated recombinant mouse CD71, Alexa Fluor 488 labeled secondary antibody, fluorescence
[3] = target: recombinant mouse CD71 (Sino Biological Inc., Beijing, China) (mouse) (UniProt Q62351); test: plate binding to coated recombinant mouse CD71, RiboGreen fluorescence detection of the conjugate's siRNA
[4] = target: recombinant mouse CD71 (Sino Biological Inc., Beijing, China) (mouse) (UniProt Q62351); test: plate binding to coated recombinant mouse CD71; EC50 of the conjugate against that of clone R17

Sequence of UniProt Q62351 (Q62351 89-763 limits assumed): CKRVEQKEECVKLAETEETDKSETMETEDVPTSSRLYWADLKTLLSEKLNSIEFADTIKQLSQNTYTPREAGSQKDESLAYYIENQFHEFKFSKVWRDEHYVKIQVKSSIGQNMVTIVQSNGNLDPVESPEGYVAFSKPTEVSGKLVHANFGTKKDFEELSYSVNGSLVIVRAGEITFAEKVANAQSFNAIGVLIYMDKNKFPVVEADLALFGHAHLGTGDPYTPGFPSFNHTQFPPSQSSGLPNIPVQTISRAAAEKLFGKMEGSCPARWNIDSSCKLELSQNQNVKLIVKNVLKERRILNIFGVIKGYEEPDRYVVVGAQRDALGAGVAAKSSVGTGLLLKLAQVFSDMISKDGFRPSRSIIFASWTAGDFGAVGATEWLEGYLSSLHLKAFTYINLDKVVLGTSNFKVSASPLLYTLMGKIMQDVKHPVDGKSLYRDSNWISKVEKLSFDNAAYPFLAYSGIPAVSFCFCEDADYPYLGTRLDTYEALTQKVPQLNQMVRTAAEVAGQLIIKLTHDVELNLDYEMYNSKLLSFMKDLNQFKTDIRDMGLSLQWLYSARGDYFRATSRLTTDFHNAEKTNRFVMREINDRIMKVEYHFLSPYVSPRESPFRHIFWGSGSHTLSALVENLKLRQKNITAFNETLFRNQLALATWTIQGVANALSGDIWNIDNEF

EC50 in inhibiting of ApoB gene expression (primary hepatocytes, quantitative PCR) [1]: 0.011 µM | silencing of ApoB at 900 nM (primary hepatocytes, quantitative PCR) [1]: 46%
Substance: clone R17 Fab'-siApoB conjugate linked with the maleimide linker

pEC50 [2]: 8.82
Substance: anti-CD71 antibody (clone R17 217.1.3) purchased from Bio X Cell

pEC50 [3]: 7.54 | fold difference of EC50 between clone R17 and the conjugate [4]: 20 fold
Substance: clone R17 Fab'-siHPRT conjugate linked with the maleimide linker
